According to EP3574020B1 (The University of British Columbia, dated 2024):

T1: cyclo(CGHHQKG) cyclic peptide, conjugated to BSA (also: conjugated to BSA, site not given here)
T1 construct: BSA is the carrier used for screening; also called cyclopeptide; Cyclo-BSA
T1 peptide: cyclo(CGHHQKG)


How the values were obtained:
[1] = target: T1, cyclo(CGHHQKG) cyclic peptide, …; experiment: SPR; immobilized antibody pre-exposed to the cyclic peptide
[2] = target: T2, commercially-prepared stable A-beta42 Oligomers (SynAging) (human); experiment: ProteOn biosensor; antibody captured with anti-mouse IgG or amine-coupled, AbO dilutions injected
T2 construct: Bought oligomer preparation; also called AbO; SynAging AbO
T2 sequence (peptide, as listed by the source): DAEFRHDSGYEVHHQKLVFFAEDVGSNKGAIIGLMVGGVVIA

[3] = target: T1, cyclo(CGHHQKG) cyclic peptide, …; experiment: ProteOn biosensor; antibody amine-coupled to GLH chip, cyclo-BSA 9 nM to 111 pM
[4] = target: T1, cyclo(CGHHQKG) cyclic peptide, …; experiment: single cycle Biacore analysis

Binder	binding result [1]	Kd [2]	Kd [3]	Kd [4]
Humanized antibody of 301-17 (VH2 Vk5), human IgG4 (S241P hinge variant) / kappa (antibody, V domains shown, also called hu301-17) VH: QVQLVQSGAEVKKPGASVKMSCKASGYSFTSYWINWVKQRPGQGLEWIGDVHPGRGVSTYNAKFKSRATLTLDTSISTAYMELSSLRSEDTAVYYCSRSHGNTYWFFDVWGQGTTVTVSS VL: DVLMTQSPLSLPVTLGQPASISCRSSQSIVHSNGNTYLEWYQQRPGQSPRLLIYKVSNRFSGVPDRFSGSGSGTDFTLKISRVEAEDVGVYYCFQGSHVPFTFGQGTKLEIKR	binds	–	–	–
Recombinant 301-17 IgG2a (murine IgG2a backbone) (antibody) heavy: QVQLQQPGAELVKPGASVKMSCKASGYSFTSYWINWVKQRPGQGLEWIGDVHPGRGVSTYNAKFKSKATLTLDTSSSTAYMQLSSLTSEDSAVYYCSRSHGNTYWFFDVWGAGTTVTVSSAKTTAPSVYPLAPVCGDTTGSSVTLGCLVKGYFPEPVTLTWNSGSLSSGVHTFPAVLQSDLYTLSSSVTVTSSTWPSQSITCNVAHPASSTKVDKKIEPRGPTIKPCPPCKCPAPNLLGGPSVFIFPPKIKDVLMISLSPIVTCVVVDVSEDDPDVQISWFVNNVEVHTAQTQTHREDYNSTLRVVSALPIQHQDWMSGKEFKCKVNNKDLPAPIERTISKPKGSVRAPQVYVLPPPEEEMTKKQVTLTCMVTDFMPEDIYVEWTNNGKTELNYKNTEPVLDSDGSYFMYSKLRVEKKNWVERNSYSCSVVHEGLHNHHTTKSFSRTPGK light: DVLMTQTPLSLPVSLGDQASISCRSSQSIVHSNGNTYLEWYLQKPGQSPKLLIYKVSNRFSGVPDRFSGSGSGTDFTLKISRVEAEDLGVYYCFQGSHVPFTFGSGTKLEIKRADAAPTVSIFPPSSEQLTSGGASVVCFLNNFYPKDINVKWKIDGSERQNGVLNSWTDQDSKDSTYSMSSTLTLTKDEYERHNSYTCEATHKTSTSPIVKSFNRNEC	–	16200 to 19500 pM	~17 pM	–
301-17 mouse monoclonal antibody, hybridoma-purified IgG3 (antibody, V domains shown, mouse IgG3 / kappa; also called mu301-17) VH: QVQLQQPGAELVKPGASVKMSCKASGYSFTSYWINWVKQRPGQGLEWIGDVHPGRGVSTYNAKFKSKATLTLDTSSSTAYMQLSSLTSEDSAVYYCSRSHGNTYWFFDVWGAGTTVTVSSATTTAPS VL: DVLMTQTPLSLPVSLGDQASISCRSSQSIVHSNGNTYLEWYLQKPGQSPKLLIYKVSNRFSGVPDRFSGSGSGTDFTLKISRVEAEDLGVYYCFQGSHVPFTFGSGTKLEIKRADA	–	26900 pM	–	400 pM
Chimeric 301-17 antibody (VH0 Vk0), mouse variable regions on human IgG4 / kappa (antibody, also called V0H0 and V0k0) heavy: not shown light: DVLMTQTPLSLPVSLGDQASISCRSSQSIVHSNGNTYLEWYLQKPGQSPKLLIYKVSNRFSGVPDRFSGSGSGTDFTLKISRVEAEDLGVYYCFQGSHVPFTFGSGTKLEIKRTVAAPSVFIFPPSDEQLKSGTASVVCLLNNFYPREAKVQWKVDNALQSGNSQESVTEQDSKDSTYSLSSTLTLSKADYEKHKVYACEVTHQGLSSPVTKSFNRGEC	–	–	–	~20 pM
